Test results: patent publication US8709506B2, “Synergistic compositions for the treatment of topical viral infections” (Vitro Bio Sarl, priority 2010, dated 2014)

B1: MMP-2: purified human MMP 2 (gelatinase A), AnaSpec (protein, UniProt P08253 110-660, looked up)
72 kDa type IV collagenase: YNFFPRKPKWDKNQITYRIIGYTPDLDPETVDDAFARAFQVWSDVTPLRFSRIHDGEADIMINFGRWEHGDGYPFDGKDGLLAHAFAPGTGVGGDSHFDDDELWTLGEGQVVRVKYGNADGEYCKFPFLFNGKEYNSCTDTGRSDGFLWCSTTYNFEKDGKYGFCPHEALFTMGGNAEGQPCKFPFRFQGTSYDSCTTEGRTDGYRWCGTTEDYDRDKKYGFCPETAMSTVGGNSEGAPCVFPFTFLGNKYESCTSAGRSDGKMWCATTANYDDDRKWGFCPDQGYSLFLVAAHEFGHAMGLEHSQDPGALMAPIYTYTKNFRLSQDDIKGIQELYGASPDIDLGTGPTPTLGPVTPEICKQDIVFDGIAQIRGEIFFFKDRFIWRTVTPRDKPMGPLLVATFWPELPEKIDAVYEAPQEEKAVFFAGNEYWIYSASTLERGYPKPLTSLGLPPDVQRVDAAFNWSKNKKTYIFAGDKFWRYNEVKKKMDPGFPKLIADAWNAIPDNLDAVVDLQGGGHSYFFKGAYYLKLENQSLKSVKFGSIKSDWLGC
B2: MMP-12: purified human MMP-12 (elastase), AnaSpec (protein, UniProt P39900 106-470, looked up)
Macrophage metalloelastase: GPVWRKHYITYRINNYTPDMNREDVDYAIRKAFQVWSNVTPLKFSKINTGMADILVVFARGAHGDFHAFDGKGGILAHAFGPGSGIGGDAHFDEDEFWTTHSGGTNLFLTAVHEIGHSLGLGHSSDPKAVMFPTYKYVDINTFRLSADDIRGIQSLYGDPKENQRLPNPDNSEPALCDPNLSFDAVTTVGNKIFFFKDRFFWLKVSERPKTSVNLISSLWPTLPSGIEAAYEIEARNQVFLFKDDKYWLISNLRPEPNYPKSIHSFGFPNFVKKIDAAVFNPRFYRTYFFVDNQYWRYDERRQMMDPGYPKLITKNFQGIGPKIDAVFYSKNKYYYFFQGSNQFEYDFLLQRITKTLKSNSWFGC

Key:
herpes virus = type: cell-based; conditions: for % cell death after 72 h TCID50 herpes virus infection: protease 0.5 μg/ml, Vero cells, serum free medium, virus control 56.0 ± 2.3
influenza virus = type: cell-based; conditions: for % cell death after 72 h TCID50 influenza virus infection: protease 0.5 μg/ml, MDCK cells, serum free medium, virus control 48.21 ± 6.77

Molecule	% increase in herpes virus growth compared to controls (herpes virus)	% cell death after 72 h TCID50 herpes virus infection (herpes virus) [%]	% increase in influenza viral growth compared to virus control (influenza virus)	% cell death after 72 h TCID50 influenza virus infection (influenza virus) [%]
B1	+31.43%	73.6 ± 6.20	+49.14%	71.90 ± 8.21
B2	+19.86%	67.12 ± 5.91	+1.41%	48.89 ± 4.39
